Measurements reported in patent US20200216536A1 (published 2020).
“And” between values parts separate entries of the source, which are not always exact repeats. Identical values can stand only once.

Columns and labels:
[1] = target: T1, canine FcRn (UniProtKB-E2ROL6 [FcRn] and UniProtKB-E2RN10 [canine beta-2-microglobulin]) (canine); assay: SPR Biacore 8K, pH 5.5, Fc captured on BSA via SASA tag, FcRn 200 nM
T1 construct: Soluble analyte injected in SPR

[2] = target: T1, canine FcRn (UniProtKB-E2ROL6 [FcRn] …); assay: SPR Biacore 8K, pH 5.5, Fc captured on BSA via SASA tag, FcRn 400 nM
[3] = target: T1, canine FcRn (UniProtKB-E2ROL6 [FcRn] …); assay: SPR Biacore 8K, pH 5.5, Fc captured on BSA via SASA tag, FcRn 200 nM; remark: listed apart in the source
[4] = target: T1, canine FcRn (UniProtKB-E2ROL6 [FcRn] …); assay: as above; remark: listed apart in the source
[5] = target: T1, canine FcRn (UniProtKB-E2ROL6 [FcRn] …); assay: SPR Biacore 8K, pH 5.5, Fc captured on BSA via SASA tag, FcRn 100-800 nM
[6] = target: T1, canine FcRn (UniProtKB-E2ROL6 [FcRn] …); assay: SPR Biacore 8K, pH 5.5, Fc captured on BSA via SASA tag, FcRn 200 nM; remark: listed apart in the source
[7] = target: T1, canine FcRn (UniProtKB-E2ROL6 [FcRn] …); assay: as above; remark: listed apart in the source
[8] = target: T1, canine FcRn (UniProtKB-E2ROL6 [FcRn] …); assay: as above; remark: listed apart in the source
[9] = target: T1, canine FcRn (UniProtKB-E2ROL6 [FcRn] …); assay: as above; remark: listed apart in the source
[10] = target: T1, canine FcRn (UniProtKB-E2ROL6 [FcRn] …); assay: as above; remark: listed apart in the source

B1: canine IgG.B Fc (CH2-CH3) variant E380A (Fc fusion)
chain: APEMLGGPSVFIFPPKPKDTLLIARTPEVTCVVVDLDPEDPEVQISWFVDGKQMQTAKTQPREEQFNGTYRVVSVLPIGHQDWLKGKQFTCKVNNKALPSPIERTISKARGQAHQPSVYVLPPSREELSKNTVSLTCLIKDFFPPDIDVAWQSNGQQEPESKYRTTPPQLDEDGSYFLYSKLSVDKSRWQRGDTFICAVMHEALHNHYTQESLSHSPGK
**Q.** What does the source list for B1?
**A.** Kd [1]: 1320 nM and 1570 nM; koff [1]: 0.223 s⁻¹ and 0.239 s⁻¹; kon [1]: 168000 M⁻¹ s⁻¹ and 152000 M⁻¹ s⁻¹; Kd [2]: 618 nM and 747 nM; koff [2]: 0.369 s⁻¹ and 0.18 s⁻¹; kon [2]: 598000 M⁻¹ s⁻¹ and 241000 M⁻¹ s⁻¹

B2: canine IgG.B Fc (CH2-CH3) variant T250E (Fc fusion)
chain: APEMLGGPSVFIFPPKPKDELLIARTPEVTCVVVDLDPEDPEVQISWFVDGKQMQTAKTQPREEQFNGTYRVVSVLPIGHQDWLKGKQFTCKVNNKALPSPIERTISKARGQAHQPSVYVLPPSREELSKNTVSLTCLIKDFFPPDIDVEWQSNGQQEPESKYRTTPPQLDEDGSYFLYSKLSVDKSRWQRGDTFICAVMHEALHNHYTQESLSHSPGK
**Q.** For B2, which Kd [3] is on record?
**A.** The Kd was 2480 nM and 1660 nM.

**Q.** What about the koff [3] of the same binder?
**A.** The koff was 0.284 s⁻¹ and 0.287 s⁻¹.

**Q.** And the kon [3]?
**A.** The kon was 114000 M⁻¹ s⁻¹ and 172000 M⁻¹ s⁻¹.

B3: canine IgG.B Fc (CH2-CH3) variant N434R (Fc fusion)
chain: APEMLGGPSVFIFPPKPKDTLLIARTPEVTCVVVDLDPEDPEVQISWFVDGKQMQTAKTQPREEQFNGTYRVVSVLPIGHQDWLKGKQFTCKVNNKALPSPIERTISKARGQAHQPSVYVLPPSREELSKNTVSLTCLIKDFFPPDIDVEWQSNGQQEPESKYRTTPPQLDEDGSYFLYSKLSVDKSRWQRGDTFICAVMHEALHRHYTQESLSHSPGK
**Q.** What does the source list for B3?
**A.** Kd [4]: 107 nM and 159 nM; koff [4]: 0.0524 s⁻¹ and 0.0633 s⁻¹; kon [4]: 488000 M⁻¹ s⁻¹ and 399000 M⁻¹ s⁻¹; Kd [5]: 182 nM; koff [5]: 0.0801 s⁻¹; kon [5]: 440000 M⁻¹ s⁻¹

B4: canine IgG.B Fc (CH2-CH3) variant L252Y (Fc fusion)
chain: APEMLGGPSVFIFPPKPKDTLYIARTPEVTCVVVDLDPEDPEVQISWFVDGKQMQTAKTQPREEQFNGTYRVVSVLPIGHQDWLKGKQFTCKVNNKALPSPIERTISKARGQAHQPSVYVLPPSREELSKNTVSLTCLIKDFFPPDIDVEWQSNGQQEPESKYRTTPPQLDEDGSYFLYSKLSVDKSRWQRGDTFICAVMHEALHNHYTQESLSHSPGK
**Q.** How did the Kd [6] turn out when B4 was run?
**A.** Its Kd is 98.7 nM and 114 nM.

**Q.** What about the koff [6] of the same binder?
**A.** Its koff is 0.0397 s⁻¹ and 0.041 s⁻¹.

**Q.** And the kon [6]?
**A.** The kon was 402000 M⁻¹ s⁻¹ and 358000 M⁻¹ s⁻¹.

**Q.** And the Kd [5]?
**A.** The Kd was 173 nM.

**Q.** And the koff [5]?
**A.** The koff was 0.0476 s⁻¹.

**Q.** What about the kon [5] of the same binder?
**A.** Its kon is 275000 M⁻¹ s⁻¹.

B5: canine IgG.B Fc (CH2-CH3) variant T250Q (Fc fusion)
chain: APEMLGGPSVFIFPPKPKDQLLIARTPEVTCVVVDLDPEDPEVQISWFVDGKQMQTAKTQPREEQFNGTYRVVSVLPIGHQDWLKGKQFTCKVNNKALPSPIERTISKARGQAHQPSVYVLPPSREELSKNTVSLTCLIKDFFPPDIDVEWQSNGQQEPESKYRTTPPQLDEDGSYFLYSKLSVDKSRWQRGDTFICAVMHEALHNHYTQESLSHSPGK
**Q.** Which Kd [3] does the source give for B5 here?
**A.** The Kd was 2590 nM and 2840 nM.

**Q.** What about the koff [3] of the same binder?
**A.** Its koff is 0.258 s⁻¹ and 0.268 s⁻¹.

**Q.** What about the kon [3] of the same binder?
**A.** The kon was 99600 M⁻¹ s⁻¹ and 94300 M⁻¹ s⁻¹.

B6: canine IgG.B Fc (CH2-CH3) variant N434W (Fc fusion)
chain: APEMLGGPSVFIFPPKPKDTLLIARTPEVTCVVVDLDPEDPEVQISWFVDGKQMQTAKTQPREEQFNGTYRVVSVLPIGHQDWLKGKQFTCKVNNKALPSPIERTISKARGQAHQPSVYVLPPSREELSKNTVSLTCLIKDFFPPDIDVEWQSNGQQEPESKYRTTPPQLDEDGSYFLYSKLSVDKSRWQRGDTFICAVMHEALHWHYTQESLSHSPGK
**Q.** B6 was tested. Which Kd [4] did it give?
**A.** The Kd was 40.4 nM and 75.7 nM.

**Q.** What about the Kd [5] of the same binder?
**A.** The Kd was 101 nM.

**Q.** What about the koff [5] of the same binder?
**A.** Its koff is 0.045 s⁻¹.

**Q.** What about the kon [5] of the same binder?
**A.** Its kon is 446000 M⁻¹ s⁻¹.

B7: canine IgG.B Fc (CH2-CH3) variant G309P (Fc fusion)
chain: APEMLGGPSVFIFPPKPKDTLLIARTPEVTCVVVDLDPEDPEVQISWFVDGKQMQTAKTQPREEQFNGTYRVVSVLPIPHQDWLKGKQFTCKVNNKALPSPIERTISKARGQAHQPSVYVLPPSREELSKNTVSLTCLIKDFFPPDIDVEWQSNGQQEPESKYRTTPPQLDEDGSYFLYSKLSVDKSRWQRGDTFICAVMHEALHNHYTQESLSHSPGK
**Q.** Which results are given for B7?
**A.** Kd [7]: 635 nM and 434 nM and 637 nM and 718 nM; koff [7]: 0.239 s⁻¹ and 0.242 s⁻¹ and 0.132 s⁻¹ and 0.145 s⁻¹; kon [7]: 377000 M⁻¹ s⁻¹ and 558000 M⁻¹ s⁻¹ and 207000 M⁻¹ s⁻¹ and 202000 M⁻¹ s⁻¹

B8: canine IgG.B Fc (CH2-CH3) variant D378V (Fc fusion)
chain: APEMLGGPSVFIFPPKPKDTLLIARTPEVTCVVVDLDPEDPEVQISWFVDGKQMQTAKTQPREEQFNGTYRVVSVLPIGHQDWLKGKQFTCKVNNKALPSPIERTISKARGQAHQPSVYVLPPSREELSKNTVSLTCLIKDFFPPDIVVEWQSNGQQEPESKYRTTPPQLDEDGSYFLYSKLSVDKSRWQRGDTFICAVMHEALHNHYTQESLSHSPGK
**Q.** What does the source list for B8?
**A.** Kd [8]: 693 nM and 873 nM; koff [8]: 0.159 s⁻¹ and 0.16 s⁻¹; kon [8]: 229000 M⁻¹ s⁻¹ and 184000 M⁻¹ s⁻¹

B9: canine IgG.B Fc (CH2-CH3) variant A254T (Fc fusion)
chain: APEMLGGPSVFIFPPKPKDTLLITRTPEVTCVVVDLDPEDPEVQISWFVDGKQMQTAKTQPREEQFNGTYRVVSVLPIGHQDWLKGKQFTCKVNNKALPSPIERTISKARGQAHQPSVYVLPPSREELSKNTVSLTCLIKDFFPPDIDVEWQSNGQQEPESKYRTTPPQLDEDGSYFLYSKLSVDKSRWQRGDTFICAVMHEALHNHYTQESLSHSPGK
**Q.** For B9, which Kd [9] is on record?
**A.** Its Kd is 2290 nM and 1340 nM.

**Q.** What about the koff [9] of the same binder?
**A.** The koff was 0.375 s⁻¹ and 0.433 s⁻¹.

**Q.** And the kon [9]?
**A.** The kon was 163000 M⁻¹ s⁻¹ and 323000 M⁻¹ s⁻¹.

B10: canine IgG.B Fc (CH2-CH3) variant L252M (Fc fusion)
chain: APEMLGGPSVFIFPPKPKDTLMIARTPEVTCVVVDLDPEDPEVQISWFVDGKQMQTAKTQPREEQFNGTYRVVSVLPIGHQDWLKGKQFTCKVNNKALPSPIERTISKARGQAHQPSVYVLPPSREELSKNTVSLTCLIKDFFPPDIDVEWQSNGQQEPESKYRTTPPQLDEDGSYFLYSKLSVDKSRWQRGDTFICAVMHEALHNHYTQESLSHSPGK
**Q.** Which Kd [6] does the source give for B10 here?
**A.** The Kd was 869 nM and 774 nM.

**Q.** And the koff [6]?
**A.** The koff was 0.168 s⁻¹ and 0.169 s⁻¹.

**Q.** What about the kon [6] of the same binder?
**A.** The kon was 193000 M⁻¹ s⁻¹ and 218000 M⁻¹ s⁻¹.

B11: canine IgG.B Fc (CH2-CH3) variant Q311V (Fc fusion)
chain: APEMLGGPSVFIFPPKPKDTLLIARTPEVTCVVVDLDPEDPEVQISWFVDGKQMQTAKTQPREEQFNGTYRVVSVLPIGHVDWLKGKQFTCKVNNKALPSPIERTISKARGQAHQPSVYVLPPSREELSKNTVSLTCLIKDFFPPDIDVEWQSNGQQEPESKYRTTPPQLDEDGSYFLYSKLSVDKSRWQRGDTFICAVMHEALHNHYTQESLSHSPGK
**Q.** For B11, which Kd [10] is on record?
**A.** Its Kd is 372 nM and 439 nM.

**Q.** And the koff [10]?
**A.** Its koff is 0.566 s⁻¹ and 0.696 s⁻¹.

**Q.** And the kon [10]?
**A.** The kon was 1.52e+06 M⁻¹ s⁻¹ and 1.59e+06 M⁻¹ s⁻¹.
